Experimental findings from PMC3976055 (2014) are described below.

The target of test [1] is T1, Rpt5 C-domain (UniProt P33297 350-434).
T1 chain: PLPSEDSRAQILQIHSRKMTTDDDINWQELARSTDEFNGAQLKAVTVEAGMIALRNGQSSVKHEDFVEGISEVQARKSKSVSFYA
Kind of test: BLI. (Biolayer interferometry detects binding as a change in optical thickness at a sensor tip.)

Test [2] has as its target T1, Rpt5 C-domain. The experiment in a line: BLI.

B1: Nas2ND (domain or fragment)
chain: NDLNHLLQRSHVLLNQHFDNMNVKSNQDARRNNDDQAIQYTIPFAFISEVVPGSPSDKADIKVDDKLISIGNVHAANHSKLQNIQMVVMKNEDRPLPVLLLREGQILKTSLTPSRNWNGRGLLGCRIQEL
Usually koff stands for the rate constant with which the complex falls apart. Read a high koff as a short-lived complex. The Kd is the equilibrium constant for the complex coming apart. A low value points to tighter binding. The molecule B1 returned a koff in the test with Rpt5 C-domain [1] of 0.26 s⁻¹. In the test with Rpt5 C-domain [2], this molecule yielded a dissociation constant (Kd) of 3.4 µM.

B2: Nas2LND (domain or fragment)
chain: GPLTRRASVGSQAIQYTIPFAFISEVVPGSPSDKADIKVDDKLISIGNVHAANHSKLQNIQMVVMKNEDRPLPVLLLREGQILKTSLTPSRNWNGRGLLGCRIQEL
In turn, B2 registered a koff with Rpt5 C-domain [1] of 0.39 s⁻¹. Moreover, in the test with Rpt5 C-domain [2], the Kd amounted to 8.5 µM.

B3: Nas2 (natural protein)
chain: MEEEELSKLLANVKIDPSLTSRISQIDSFKLSELMVLKTDIETQLEAYFSVLEQQGIGMDSALVTPDGYPRSDVDVLQVTMIRKNVNMLKNDLNHLLQRSHVLLNQHFDNMNVKSNQDARRNNDDQAIQYTIPFAFISEVVPGSPSDKADIKVDDKLISIGNVHAANHSKLQNIQMVVMKNEDRPLPVLLLREGQILKTSLTPSRNWNGRGLLGCRIQEL
Turning to B3, in the test with Rpt5 C-domain [1], the dissociation rate constant (koff) is 0.013 s⁻¹. Besides, the Kd with Rpt5 C-domain [2] worked out at 1.4 µM.
